System: Escherichia coli TOP10
Assay: shrunken log2 fold change of peptide-encoding DNA abundance (4.5 h post-induction vs induction); higher = less antimicrobial activity (less host growth inhibition)
Details: time post-induction: 4.5 h; library: site-saturation at positions 5, 18, 19, 20
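Further: peptides expressed intracellularly from a pBAD plasmid library in pooled LB shake-flask culture, induced with 0.3% L-arabinose, DNA abundance read by NGS, three biological replicates, DESeq2 with apeglm shrinkage.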

Sequence: RRIRIRPPRLPRPRPRPDIYPRP
- shrunken log2 fold change: -0.357

Sequence: RRIRRRPPRLPRPRPRPQKQPRP
- shrunken log2 fold change: 0.338

Sequence: RRIRKRPPRLPRPRPRPGYCPRP
- shrunken log2 fold change: -0.275

Sequence: RRIRLRPPRLPRPRPRPLTEPRP
- shrunken log2 fold change: 0.098

Sequence: RRIRIRPPRLPRPRPRPGSSPRP
- shrunken log2 fold change: -0.486

Sequence: RRIRQRPPRLPRPRPRPMLCPRP
- shrunken log2 fold change: -0.00319

Sequence: RRIRHRPPRLPRPRPRPPCPPRP
- shrunken log2 fold change: -0.0235

Sequence: RRIRNRPPRLPRPRPRPPHHPRP
- shrunken log2 fold change: -0.11

Sequence: RRIRSRPPRLPRPRPRPVYDPRP
- shrunken log2 fold change: -0.227

Sequence: RRIRFRPPRLPRPRPRPEKIPRP
- shrunken log2 fold change: 0.102

Sequence: RRIRLRPPRLPRPRPRPGNNPRP
- shrunken log2 fold change: -0.58

Sequence: RRIRDRPPRLPRPRPRPIEQPRP
- shrunken log2 fold change: 0.0525

Sequence: RRIRERPPRLPRPRPRPWHVPRP
- shrunken log2 fold change: -0.0018

Sequence: RRIRGRPPRLPRPRPRPSFHPRP
- shrunken log2 fold change: -0.17

Sequence: RRIRDRPPRLPRPRPRPNPWPRP
- shrunken log2 fold change: 0.111

Sequence: RRIRSRPPRLPRPRPRPAGRPRP
- shrunken log2 fold change: 0.287

Sequence: RRIRWRPPRLPRPRPRPTSPPRP
- shrunken log2 fold change: 0.217

Sequence: RRIRARPPRLPRPRPRPKLIPRP
- shrunken log2 fold change: 0.128

Sequence: RRIRVRPPRLPRPRPRPLMAPRP
- shrunken log2 fold change: 0.049

Sequence: RRIRVRPPRLPRPRPRPYWMPRP
- shrunken log2 fold change: -0.227

Sequence: RRIRDRPPRLPRPRPRPWDMPRP
- shrunken log2 fold change: -0.133

Sequence: RRIRRRPPRLPRPRPRPGLCPRP
- shrunken log2 fold change: 0.457

Sequence: RRIRDRPPRLPRPRPRPVWEPRP
- shrunken log2 fold change: 0.0337

Sequence: RRIRMRPPRLPRPRPRPPTHPRP
- shrunken log2 fold change: 0.696

Sequence: RRIRFRPPRLPRPRPRPAQWPRP
- shrunken log2 fold change: 0.296

Sequence: RRIRGRPPRLPRPRPRPDQPPRP
- shrunken log2 fold change: 1.01

Sequence: RRIRERPPRLPRPRPRPQMLPRP
- shrunken log2 fold change: -0.0206

Sequence: RRIRLRPPRLPRPRPRPQYCPRP
- shrunken log2 fold change: 0.273

Sequence: RRIRYRPPRLPRPRPRPVQGPRP
- shrunken log2 fold change: -0.0822

Sequence: RRIRSRPPRLPRPRPRPYCFPRP
- shrunken log2 fold change: -0.544

Sequence: RRIRLRPPRLPRPRPRPVHKPRP
- shrunken log2 fold change: -0.256

Sequence: RRIRFRPPRLPRPRPRPWGRPRP
- shrunken log2 fold change: 0.0219

Sequence: RRIRQRPPRLPRPRPRPEHLPRP
- shrunken log2 fold change: -0.00142

Sequence: RRIRWRPPRLPRPRPRPRWYPRP
- shrunken log2 fold change: -0.0387

Sequence: RRIRHRPPRLPRPRPRPHRNPRP
- shrunken log2 fold change: -0.117

Sequence: RRIRMRPPRLPRPRPRPNGAPRP
- shrunken log2 fold change: 0.0765

Sequence: RRIRMRPPRLPRPRPRPGNWPRP
- shrunken log2 fold change: 0.561

Sequence: RRIRVRPPRLPRPRPRPMIGPRP
- shrunken log2 fold change: -0.112

Sequence: RRIRPRPPRLPRPRPRPLHPPRP
- shrunken log2 fold change: 0.252

Sequence: RRIRLRPPRLPRPRPRPYWNPRP
- shrunken log2 fold change: -1.03

Sequence: RRIRHRPPRLPRPRPRPHQSPRP
- shrunken log2 fold change: -0.0258

Sequence: RRIRTRPPRLPRPRPRPVSLPRP
- shrunken log2 fold change: -0.298

Sequence: RRIRGRPPRLPRPRPRPKHMPRP
- shrunken log2 fold change: 0.0797

Sequence: RRIRPRPPRLPRPRPRPRHYPRP
- shrunken log2 fold change: 0.101

Sequence: RRIRCRPPRLPRPRPRPVCMPRP
- shrunken log2 fold change: -0.119

Sequence: RRIRPRPPRLPRPRPRPLMPPRP
- shrunken log2 fold change: -0.188

Sequence: RRIRSRPPRLPRPRPRPFWQPRP
- shrunken log2 fold change: 0.909

Sequence: RRIRQRPPRLPRPRPRPHNRPRP
- shrunken log2 fold change: -0.372

Sequence: RRIRYRPPRLPRPRPRPMMFPRP
- shrunken log2 fold change: -0.091

Sequence: RRIRIRPPRLPRPRPRPDADPRP
- shrunken log2 fold change: 0.194

Sequence: RRIRLRPPRLPRPRPRPADTPRP
- shrunken log2 fold change: -0.538

Sequence: RRIRARPPRLPRPRPRPVLAPRP
- shrunken log2 fold change: 1.18

Sequence: RRIRLRPPRLPRPRPRPNMFPRP
- shrunken log2 fold change: -0.225

Sequence: RRIRPRPPRLPRPRPRPRLAPRP
- shrunken log2 fold change: 0.507

Sequence: RRIRLRPPRLPRPRPRPWDKPRP
- shrunken log2 fold change: -0.0731

Sequence: RRIRIRPPRLPRPRPRPKAAPRP
- shrunken log2 fold change: 0.147

Sequence: RRIRDRPPRLPRPRPRPQIGPRP
- shrunken log2 fold change: -0.00672

Sequence: RRIRARPPRLPRPRPRPWLYPRP
- shrunken log2 fold change: -0.0506

Sequence: RRIRERPPRLPRPRPRPWMPPRP
- shrunken log2 fold change: -0.062

Sequence: RRIRGRPPRLPRPRPRPMHAPRP
- shrunken log2 fold change: 1.66

— the supplement of paper PMC9112550, “Optimization of the antimicrobial peptide Bac7 by deep mutational scanning” (BMC Biology, 2022)
